B1: 22012 (protein)
chain: MDWIWRILFLVGAATGAHSQLQLQESGPGLVKPSETLSLTCTVSGGSVSSSSYYWGWIRQPPGKRLELIGSIYYGGSTYFNPSLKTRVTISVDTSKNQFSLKLSSVTAADTAVYYCAGGDTYGPVGQWPSDYRGQGTLVTVSSLEDLKNVFPPEVAVFEPSEAEISHTQKATLVCLATGFYPDHVELSWWVNGKEVHSGVCTDPQPLKEQPALNDSRYCLSSRLRVSATFWQNPRNHFRCQVQFYGLSENDEWTQDRAKPVTQIVSAEAWGRADCGFTSESYQQGVLSATILYEILLGKATLYAVLVSALVLMAMVKRKDSRGRAKRSGSGATNFSLLKQAGDVEENPGPTSMDWIWRILFLVGAATGAHSFEVQLLESGGGLIQPGGSLRLSCAASGFTFSSHAMTWVRQAPGKGLEWVSAISGSGDYTHYADSVKGRFTISRDNSKNTVYLQMNSLRAEDSAVYYCAKDEDGGSLLGHRGQGTLVTVSSTRIQNPDPAVYQLRDSKSSDKSVCLFTDFDSQTNVSQSKDSDVYITDKCVLDMRSMDFKSNSAVAWSNKSDFACANAFNNSIIPEDTFFPSPESSCDVKLVEKSFETDTNLNFQNLSVIGFRILLLKVAGFNLLMTLRLWSSRAKRSGSGVKQTLNFDLLKLAGDVESNPGPSRGHMTEYKPTVRLATRDDVPRAVRTLAAAFADYPATRHTVDPDRHIERVTELQELFLTRVGLDIGKVWVADDGAAVAVWTTPESVEAGAVFAEIGPRMAELSGSRLAAQQQMEGLLAPHRPKEPAWFLATVGVSPDHQGKGLGSAVVLPGVEAAERAGVPAFLETSAPRNLPFYERLGFTVTADVEVPEGPRTWCMTRKPGA
B2: 22141 (protein)
chain: MALPVTALLLPLALLLHAARPACEVQLLESGGGLIQPGGSLRLSCAASGFTFSSHAMTWVRQAPGKGLEWVSAISGSGDYTHYADSVKGRFTISRDNSKNTVYLQMNSLRAEDSAVYYCAKDEDGGSLLGHRGQGTLVTVSSGTGGGGSGGGGSGGGGSEFDIQMTQSPSSLSASVGDRVTITCKASDHINNWLAWYQQKPGQAPKLLIYGATTLETGVPSRFSGSGSGTDYTLTISSLQPEDFATYYCQQSWNTPWTFGQGTKLEIKRLEGQPKANPTVTLFPPSSEELQANKATLVCLISDFYPGAVTVAWKADGSPVKAGVETTKPSKQSNNKYAASSYLSLTPEQWKSHRSYSCQVTHEGSTVEKTVAPTECSPIKTDVITMDPKDNCSKDANDTLLLQLTNTSAYYMYLLLLLKSVVYFAIITCCLLRRTAFCCNGEKSRAKRSGSGATNFSLLKQAGDVEENPGPTSATMDWIWRILFLVGAATGAHSGPQVQLQESGGGLAQAGGSLRLSCAASGRTFSMGWFRQAPGKEREFVAAITYSGGSPYYASSVRGRFTISRDNAKNTVYLQMNSLKPEDTAVYYCAANPTYGSDWNAENWGQGTQVTVSSGSGGGGSGGGGSGGGGSFEQVQLQQPGAELVKPGASVKMSCKASGYAFSSYWINWMKQKPGQGLEWIGQIYPGDGDTNYNGKFKGRATLTADTSSSTAYMQLSSLTSEDSAVYFCARSITTVVGCAMDYWGQGTSVTVSSTRASTKGPSVFPLAPSSKSTSGGTAALGCLVKDYFPEPVTVSWNSGALTSGVHTFPAVLQSSGLYSLSSVVTVPSSSLGTQTYICNVNHKPSNTKVDKRVEPKSCEVKTDSTDHVKPKETENTKQPSKSCHKPKAIVHTEKVNMMSLTVLGLRMLFAKTVAVNFLLTAKLFFLRAKRSGSGVKQTLNFDLLKLAGDVESNPGPSRAHMTEYKPTVRLATRDDVPRAVRTLAAAFADYPATRHTVDPDRHIERVTELQELFLTRVGLDIGKVWVADDGAAVAVWTTPESVEAGAVFAEIGPRMAELSGSRLAAQQQMEGLLAPHRPKEPAWFLATVGVSPDHQGKGLGSAVVLPGVEAAERAGVPAFLETSAPRNLPFYERLGFTVTADVEVPEGPRTWCMTRKPGA
B3: 22106 (protein)
chain: MALPVTALLLPLALLLHAARPDIQMTQSPSSLSASVGDRVTITCKASDHINNWLAWYQQKPGQAPKLLIYGATTLETGVPSRFSGSGSGTDYTLTISSLQPEDFATYYCQQSWNTPWTFGQGTKLEIKRLEDLKNVFPPEVAVFEPSKAEIAHTQKATLVCLATGFYPDHVELSWWVNGKEVHSGVCTDPQPLKEQPALNDSRYCLSSRLRVSATFWQNPRNHFRCQVQFYGLSENDEWTQDRAKPVTQIVSAEAWGRADCGITSASYHQGVLSATILYEILLGKATLYAVLVSALVLMAMVKRKDSRGRAKRSGSGATNFSLLKQAGDVEENPGPTSATMDWIWRILFLVGAATGAHSGPQVQLQESGGGLAQAGGSLRLSCAASGRTFSMGWFRQAPGKEREFVAAITYSGGSPYYASSVRGRFTISRDNAKNTVYLQMNSLKPEDTAVYYCAANPTYGSDWNAENWGQGTQVTVSSGSGGGGSGGGGSGGGGSFEQVQLQQPGAELVKPGASVKMSCKASGYAFSSYWINWMKQKPGQGLEWIGQIYPGDGDTNYNGKFKGRATLTADTSSSTAYMQLSSLTSEDSAVYFCARSITTVVGCAMDYWGQGTSVTVSSTRIQNPDPAVYQLRDSKSSDKSVCLFTDFDSQTNVSQSKDSDVYITDKCVLDMRSMDFKSNSAVAWSNKSDFACANAFNNSIIPEDTFFPSSDVPCDVKLVEKSFETDTNLNFQNLSVIGFRILLLKVAGFNLLMTLRLWSSRAKRSGSGVKQTLNFDLLKLAGDVESNPGPSRGHMTEYKPTVRLATRDDVPRAVRTLAAAFADYPATRHTVDPDRHIERVTELQELFLTRVGLDIGKVWVADDGAAVAVWTTPESVEAGAVFAEIGPRMAELSGSRLAAQQQMEGLLAPHRPKEPAWFLATVGVSPDHQGKGLGSAVVLPGVEAAERAGVPAFLETSAPRNLPFYERLGFTVTADVEVPEGPRTWCMTRKPGA
B4: 22139 (protein)
chain: MALPVTALLLPLALLLHAARPACEVQLLESGGGLIQPGGSLRLSCAASGFTFSSHAMTWVRQAPGKGLEWVSAISGSGDYTHYADSVKGRFTISRDNSKNTVYLQMNSLRAEDSAVYYCAKDEDGGSLLGHRGQGTLVTVSSGTGGGGSGGGGSGGGGSEFDIQMTQSPSSLSASVGDRVTITCKASDHINNWLAWYQQKPGQAPKLLIYGATTLETGVPSRFSGSGSGTDYTLTISSLQPEDFATYYCQQSWNTPWTFGQGTKLEIKRLEADVSPKPTIFLPSIAETKLQKAGTYLCLLEKFFPDVIKIHWQEKKSNTILGSQEGNTMKTNDTYMKFSWLTVPEKSLDKEHRCIVRHENNKNGVDQEIIFPPIKTDVITMDPKDNCSKDANDTLLLQLTNTSAYYMYLLLLLKSVVYFAIITCCLLRRTAFCCNGEKSRAKRSGSGATNFSLLKQAGDVEENPGPTSMDWIWRILFLVGAATGAHSGPQVQLQESGGGLAQAGGSLRLSCAASGRTFSMGWFRQAPGKEREFVAAITYSGGSPYYASSVRGRFTISRDNAKNTVYLQMNSLKPEDTAVYYCAANPTYGSDWNAENWGQGTQVTVSSGSGGGGSGGGGSGGGGSFEQVQLQQPGAELVKPGASVKMSCKASGYAFSSYWINWMKQKPGQGLEWIGQIYPGDGDTNYNGKFKGRATLTADTSSSTAYMQLSSLTSEDSAVYFCARSITTVVGCAMDYWGQGTSVTVSSTRPHTKPSVFVMKNGTNVACLVKEFYPKDIRINLVSSKKITEFDPAIVISPSGKYNAVKLGKYEDSNSVTCSVQHDNKTVHSTDFEVKTDSTDHVKPKETENTKQPSKSCHKPKAIVHTEKVNMMSLTVLGLRMLFAKTVAVNFLLTAKLFFLRAKRSGSGVKQTLNFDLLKLAGDVESNPGPSRGHMTEYKPTVRLATRDDVPRAVRTLAAAFADYPATRHTVDPDRHIERVTELQELFLTRVGLDIGKVWVADDGAAVAVWTTPESVEAGAVFAEIGPRMAELSGSRLAAQQQMEGLLAPHRPKEPAWFLATVGVSPDHQGKGLGSAVVLPGVEAAERAGVPAFLETSAPRNLPFYERLGFTVTADVEVPEGPRTWCMTRKPGA

Key:
Type in all cases: cell-based
L363 cells = experiment: JNG assay, co-culture with L363 cells; settings: co-culture with L363
Outline: (§1)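 Jurkat-NFAT-GFP (JNG) cells stably expressing SAR constructs via lentiviral transduction and puromycin/blasticidin selection were cocultured with target cells at E:T ~1:2 for ~4–18 h. NFAT-driven GFP was measured by FACS versus parental JNG cells; scores +/- to 5+ denote ~5–50% GFP-positive cells.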

RS;411 = experiment: JNG assay, co-culture with RS;411 cells; settings: co-culture with RS411
Description: Cellular supernatant is collected and assayed for the induction of cytokines (e.g., IL2).
JNG (Jurkat cells expressing EGFP under an NFAT promoter) were infected with lentiviral vectors encoding different single chain and multi-chain SARs by spinfection in the presence of 8 µg/ml of Polybrene® (Sigma, Catalog no. H9268). The Jurkat-NFAT-GFP cells are engineered in such a way that the IL-2 promoter, which carries NFAT binding sites, is cloned upstream of the GFP gene. These cells have been used to study signaling via TCR and CAR. The different SARs were stably expressed in Jurkat NFAT-GFP cells by lentiviral mediated gene transfer, followed by selection with puromycin or blasticidin. No drug selection was used in case the construct lacked an antibiotic resistance gene. The SAR-expressing Jurkat-NFAT-GFP cells were cocultured with the target cells at E:T ratio of approximately 1:2 for approximately 4 hours to 18 hours. When the interaction between SIRs and their target antigen results in activation of the NFAT pathway, GFP expression is induced. […] GFP expression was monitored by FACS analysis. The Jurkat-NFAT-GFP (parental) cells were used as control. The structure of different constructs can be determined based on their names. […] The sequence of the other constructs in the table can be similarly determined from their names and by referring to the different Tables of this disclosure that provide the names and SEQ ID NO of the different modules. Alternatively, the composition and modular architecture of the different SAR constructs can be determined from their sequences by bioinformatics tools, including using nucleic acid and amino acids homology searches. A SAR is considered positive in the assay in case the SAR expressing Jurkat-NFAT-GFP cells show greater % GFP positive cells when cultured with the target cell line as compared to parental Jurkat-NFAT-GFP cells. […] In general, the number +/-, +, 2+, 3+, 4+, 5+ refer to approximately 5%, 10%, 20%, 30%, 40% and 50% GFP positive cells. The % of GFP induction in the above assay is dependent not only the relative strength of the SAR but also, among other factors, on the relative level of expression of the SAR in the JNG cells and the relative level of expression of the target antigen in the target cell line. To control for the difference in gene transduction efficiency of the different SAR constructs, the experiment was conducted with JNG cells transduced with SAR constructs co-expressing a drug resistance gene (e.g., puromycin or PAC) followed by drug selection to generate a stable population of SAR-expressing cells. It is to be noted that the drug resistance gene (e.g., PAC) in the SAR constructs is optional and in vivo studies were conducted with SAR constructs lacking the PAC gene.

RAJI cells = experiment: JNG assay, co-culture with RAJI cells; settings: JNG cells expressing construct, co-culture with Raji
Outline: as §1

Molecule	NFAT-GFP ASSAY: L363 (L363 cells)	NFAT-GFP ASSAY: RS411 (RS;411)	NFAT-GFP ASSAY: Raji (RAJI cells)
B1	+ (refer to approximately 5%, 10%, 20%, 30%, 40% and 50% GFP positive cells)	+/- (refer to approximately 5%, 10%, 20%, 30%, 40% and 50% GFP positive cells)	
B2		4+ (refer to approximately 5%, 10%, 20%, 30%, 40% and 50% GFP positive cells)	4+ (refer to approximately 5%, 10%, 20%, 30%, 40% and 50% GFP positive cells)
B3		+ (refer to approximately 5%, 10%, 20%, 30%, 40% and 50% GFP positive cells)	5+ (refer to approximately 5%, 10%, 20%, 30%, 40% and 50% GFP positive cells)
B4		2+ (refer to approximately 5%, 10%, 20%, 30%, 40% and 50% GFP positive cells)	2+ (refer to approximately 5%, 10%, 20%, 30%, 40% and 50% GFP positive cells)
